# Assay results published in the supplement of paper PMC9112550, “Optimization of the antimicrobial peptide Bac7 by deep mutational scanning” (BMC Biology, 2022).
# System: Escherichia coli TOP10
# Test: shrunken log2 fold change of peptide-encoding DNA abundance (4.5 h post-induction vs induction); higher = less antimicrobial activity (less host growth inhibition)
# Details: time post-induction: 4.5 h; library: site-saturation at positions 5, 18, 19, 20
# 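Further: peptides expressed intracellularly from a pBAD plasmid library in pooled LB shake-flask culture, induced with 0.3% L-arabinose, DNA abundance read by NGS, three biological replicates, DESeq2 with apeglm shrinkage.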
row,Sequence,shrunken log2 fold change
1,RRIRPRPPRLPRPRPRPNRVPRP,-0.275
2,RRIRSRPPRLPRPRPRPTAWPRP,0.47
3,RRIRGRPPRLPRPRPRPPQMPRP,1.77
4,RRIRTRPPRLPRPRPRPWGSPRP,0.0639
5,RRIRIRPPRLPRPRPRPSTKPRP,-1.14
6,RRIRERPPRLPRPRPRPHKPPRP,-0.519
7,RRIRRRPPRLPRPRPRPWIPPRP,-0.129
8,RRIRSRPPRLPRPRPRPPWIPRP,-0.0981
9,RRIRTRPPRLPRPRPRPGATPRP,0.572
10,RRIRHRPPRLPRPRPRPQCNPRP,-0.169
11,RRIRQRPPRLPRPRPRPSWGPRP,-0.0627
12,RRIRIRPPRLPRPRPRPKLHPRP,-0.0109
13,RRIRKRPPRLPRPRPRPGMVPRP,0.8
14,RRIRNRPPRLPRPRPRPGDEPRP,0.0115
15,RRIRGRPPRLPRPRPRPYCCPRP,-0.0424
16,RRIRERPPRLPRPRPRPMNRPRP,-0.401
17,RRIRGRPPRLPRPRPRPQHPPRP,0.426
18,RRIRFRPPRLPRPRPRPINSPRP,-0.428
19,RRIRYRPPRLPRPRPRPCCGPRP,-0.33
20,RRIRTRPPRLPRPRPRPKIDPRP,-0.0576
21,RRIRWRPPRLPRPRPRPYSIPRP,-0.296
22,RRIRGRPPRLPRPRPRPEPGPRP,1.33
23,RRIRQRPPRLPRPRPRPFWQPRP,0.213
24,RRIRKRPPRLPRPRPRPTKKPRP,0.0465
25,RRIRIRPPRLPRPRPRPQWCPRP,0.307

row,Sequence,shrunken log2 fold change
1,RRIRQRPPRLPRPRPRPRCTPRP,-0.172
2,RRIRKRPPRLPRPRPRPCPIPRP,-0.212
3,RRIRNRPPRLPRPRPRPHQEPRP,-0.00146
4,RRIRPRPPRLPRPRPRPCVFPRP,-0.164
5,RRIRWRPPRLPRPRPRPPFMPRP,0.0466
6,RRIRCRPPRLPRPRPRPAAGPRP,0.378
7,RRIRVRPPRLPRPRPRPWPPPRP,0.46
8,RRIRARPPRLPRPRPRPAHRPRP,0.326
9,RRIRGRPPRLPRPRPRPSMGPRP,0.34
10,RRIRWRPPRLPRPRPRPMTEPRP,0.804
11,RRIRERPPRLPRPRPRPYNLPRP,-0.321
12,RRIRFRPPRLPRPRPRPSRMPRP,0.311
13,RRIRYRPPRLPRPRPRPVVPPRP,-0.0502
14,RRIRLRPPRLPRPRPRPSSHPRP,-0.196
15,RRIRRRPPRLPRPRPRPYNWPRP,-0.734
16,RRIRTRPPRLPRPRPRPEFAPRP,0.0178
17,RRIRGRPPRLPRPRPRPAQHPRP,0.378
18,RRIRTRPPRLPRPRPRPTYTPRP,-0.496
19,RRIRYRPPRLPRPRPRPMMFPRP,-0.091
20,RRIRYRPPRLPRPRPRPVREPRP,0.484
21,RRIRKRPPRLPRPRPRPMDMPRP,0.15
22,RRIRLRPPRLPRPRPRPHTVPRP,-0.267
23,RRIRVRPPRLPRPRPRPQYSPRP,0.0315
24,RRIRYRPPRLPRPRPRPKQSPRP,-0.156
25,RRIRRRPPRLPRPRPRPMQGPRP,0.031

row,Sequence,shrunken log2 fold change
1,RRIRRRPPRLPRPRPRPWSRPRP,0.0777
2,RRIRCRPPRLPRPRPRPRQMPRP,-0.136
3,RRIRARPPRLPRPRPRPRSSPRP,0.188
4,RRIRTRPPRLPRPRPRPICQPRP,-0.0148
5,RRIRMRPPRLPRPRPRPRHTPRP,1.15
6,RRIRTRPPRLPRPRPRPQHIPRP,-0.554
7,RRIRNRPPRLPRPRPRPIQKPRP,-0.287
8,RRIRQRPPRLPRPRPRPTHPPRP,0.374
9,RRIRYRPPRLPRPRPRPNATPRP,-0.222
10,RRIRGRPPRLPRPRPRPCTFPRP,0.0341
11,RRIRRRPPRLPRPRPRPRGMPRP,0.907
12,RRIRKRPPRLPRPRPRPPMHPRP,0.636
13,RRIRRRPPRLPRPRPRPQKAPRP,0.0122
14,RRIRKRPPRLPRPRPRPHEWPRP,0.3
15,RRIRDRPPRLPRPRPRPRWEPRP,-0.0171
16,RRIRVRPPRLPRPRPRPKGSPRP,0.0616
17,RRIRKRPPRLPRPRPRPNVVPRP,0.0163
18,RRIRSRPPRLPRPRPRPFYHPRP,-0.28
19,RRIRVRPPRLPRPRPRPESEPRP,0.0921
20,RRIRKRPPRLPRPRPRPQWCPRP,0.149
21,RRIRVRPPRLPRPRPRPPWQPRP,0.44
22,RRIRQRPPRLPRPRPRPQGKPRP,-0.0747
23,RRIRNRPPRLPRPRPRPSRCPRP,0.283
24,RRIRLRPPRLPRPRPRPRENPRP,0.345
25,RRIRERPPRLPRPRPRPHQIPRP,-0.372

row,Sequence,shrunken log2 fold change
1,RRIRNRPPRLPRPRPRPDMWPRP,-0.119
2,RRIRTRPPRLPRPRPRPLNPPRP,-0.19
3,RRIRERPPRLPRPRPRPEIGPRP,-0.166
4,RRIRIRPPRLPRPRPRPLHSPRP,-0.402
5,RRIRERPPRLPRPRPRPHLDPRP,0.000475
6,RRIRARPPRLPRPRPRPYEEPRP,-0.441
7,RRIRFRPPRLPRPRPRPSRNPRP,-0.346
8,RRIRWRPPRLPRPRPRPRLLPRP,0.178
9,RRIRTRPPRLPRPRPRPQNVPRP,0.0194
10,RRIRPRPPRLPRPRPRPPSAPRP,1.05
11,RRIRHRPPRLPRPRPRPRREPRP,0.217
12,RRIRCRPPRLPRPRPRPMDQPRP,0.337
13,RRIRLRPPRLPRPRPRPKPPPRP,0.586
14,RRIRTRPPRLPRPRPRPIRYPRP,-0.0148
15,RRIRERPPRLPRPRPRPYSTPRP,-0.335
16,RRIRTRPPRLPRPRPRPVGAPRP,0.327
17,RRIRNRPPRLPRPRPRPKFLPRP,0.0309
18,RRIRCRPPRLPRPRPRPEKWPRP,-0.0207
19,RRIRNRPPRLPRPRPRPNGKPRP,-0.16
20,RRIRKRPPRLPRPRPRPTKWPRP,0.172
21,RRIRMRPPRLPRPRPRPMIIPRP,-0.117
22,RRIRDRPPRLPRPRPRPQKVPRP,-0.114
23,RRIRYRPPRLPRPRPRPFGMPRP,-0.00968
24,RRIRARPPRLPRPRPRPKMPPRP,0.114
25,RRIRDRPPRLPRPRPRPIDCPRP,0.0306

row,Sequence,shrunken log2 fold change
1,RRIRCRPPRLPRPRPRPKNKPRP,-0.244
2,RRIRCRPPRLPRPRPRPLQWPRP,-0.0609
3,RRIRMRPPRLPRPRPRPECGPRP,2.7
4,RRIRMRPPRLPRPRPRPSHRPRP,0.254
5,RRIRCRPPRLPRPRPRPGHIPRP,-0.458
6,RRIRLRPPRLPRPRPRPDINPRP,-0.665
7,RRIRIRPPRLPRPRPRPGFVPRP,0.108
8,RRIRWRPPRLPRPRPRPDFMPRP,-0.015
9,RRIRIRPPRLPRPRPRPYGMPRP,-0.354
10,RRIRCRPPRLPRPRPRPCNLPRP,-0.0646
11,RRIRMRPPRLPRPRPRPLRPPRP,1.76
12,RRIRGRPPRLPRPRPRPAVQPRP,0.797
13,RRIRWRPPRLPRPRPRPIFWPRP,-0.00424
14,RRIRTRPPRLPRPRPRPVCYPRP,-0.531
15,RRIRHRPPRLPRPRPRPFDYPRP,-0.0282
16,RRIRRRPPRLPRPRPRPNQFPRP,0.119
17,RRIRWRPPRLPRPRPRPDHNPRP,-0.302
18,RRIRVRPPRLPRPRPRPCPFPRP,-0.314
19,RRIRQRPPRLPRPRPRPFMLPRP,-0.278
20,RRIRARPPRLPRPRPRPDWNPRP,0.0789
21,RRIRWRPPRLPRPRPRPGMHPRP,0.343
22,RRIRCRPPRLPRPRPRPFLCPRP,-0.786
23,RRIRWRPPRLPRPRPRPNLCPRP,0.114
24,RRIRVRPPRLPRPRPRPWWYPRP,-0.327
25,RRIRSRPPRLPRPRPRPHRVPRP,0.0316
